Results as given in the supplement of paper PMC12042874.
± gives the uncertainty stated by the source.

experiment: amyloid nucleation score (Sup35N fusion, yeast selection) (log enrichment); library NNK2; higher = more nucleation; inactive = no reads after selection
Procedure, shortened: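 Sup35N was fused to peptides of 20 random codons and expressed in psi-negative yeast, which were induced with 100 μM copper sulfate for 24 hours and then grown on medium lacking adenine and uracil for 7 days at 30°C. Plasmid inserts from input and output were sequenced on Illumina. The nucleation score is the DiMSum log enrichment of output over input reads, centred on the mode score of non-aggregating sequences. Sequences with under 100 input reads were left out, and random libraries had three technical output replicates.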

Substance | amyloid nucleation score
RTYLGLVLGF | inactive
RVCPFSQYHVFVS | -0.155 ± 0.18
RVDKMMYSRLPCLVAV | 0.466 ± 0.49
RVDYSMREFCLSSRAREDTV | -0.353 ± 0.42
RVFNLNKKMNFSTISG | -0.942 ± 1.1
RVIQLQKVTHWW | 2.72 ± 0.078
RVLKFFYGLTRVVS | 1.23 ± 0.12
RVLREKCSIGVAGKYSY | -0.512 ± 0.49
RVMFYVINEVWDMNSARTNT | 6.38 ± 0.08
RVMMLEGQASNMAYEEL | 0.274 ± 1.1
RVNEMWIQI | -0.138 ± 0.76
RVNTLLHILMYFNCLSGVEL | 4.88 ± 0.049
RVRKNCRFWSNCSCIVMVGR | 5.07 ± 0.059
RVRSGKKHDW | 1.01 ± 0.14
RVSCNRVRVYCWLVWRLIPN | inactive
RVSRRCVYWRRQGHWAIFGQ | 0.098 ± 1
RVTFSLWFADFIQNNLLKK | 0.158 ± 0.5
RVTNLIHQLRVPKIGKSGFA | 0.294 ± 0.23
RVVQPKFMLGVQYSAIQFNS | 2.47 ± 0.089
RWATAKRI | 0.194 ± 0.49
RWCQE | -0.288 ± 0.53
RWCSSYRYIHSGGRNASGSF | -0.108 ± 0.8

Substance | amyloid nucleation score
RWDCLQLLISSCFFDMDGCG | -0.668 ± 0.64
RWHLFSITYLKVLDWDCCLW | 5.45 ± 0.034
RWLTGMLDVVPYTFCEEV | inactive
RWPNLSDAQVWAPTSQLLSS | 0.92 ± 0.32
RYALFSARIYSLYWLWFCIF | inactive
RYFRATPKVCRLH | 0.175 ± 0.26
RYGRRSYLPAIIRCARCLDE | 6.56 ± 0.066
RYGVRTSAPNMQWLFAGWS | 0.613 ± 0.74
RYHSRAWAPYCTTHATVPEV | 1.28 ± 0.29
RYNIVLGRLL | inactive
RYNRN | -0.195 ± 0.36
RYRHLTFLVFCIAVPVGFWR | 2.04 ± 0.14
RYSITGTYYIA | 3.63 ± 0.057
RYSRFSDQSMFSRPYA | 0.333 ± 0.31
RYTSVYSGRSENG | inactive
RYYLNL | 3.83 ± 0.091
SADRRQGITRFGTFNGGVRS | 0.481 ± 0.24
SAIKYIGILAMRDQDQASQI | -1.59 ± 0.62
SAMLDRFYGVRFTMFCRAEH | 0.299 ± 0.61
SARWYILRVFIFFIPRSAYK | -1.59 ± 0.76
SASVHYHYDMK | 0.268 ± 0.62
SCDIKCWCQ | 3.41 ± 0.079

Substance | amyloid nucleation score
SCFTLSFKVITLHSRLQFIW | 0.181 ± 0.35
SCIMECM | -0.108 ± 1.1
SCLYSSRPSMLGTIYRRMRC | 0.163 ± 0.34
SCNPRKNGSQCCGMNLSLSV | 0.808 ± 0.8
SCSRWHYESSYLYIDTLEDY | 0.347 ± 0.55
SCSVCWSLSMV | 1.31 ± 0.36
SCSWLLSEIGCESVEIRRTV | 5.51 ± 0.082
SCYLALKFTFRLFVLKSEGL | -0.202 ± 1
SDDLCHCIFGVVPGKSFPTM | inactive
SDGQGHYVIQRTLWVTWSFR | -0.707 ± 0.76
SDGVNIMK | 2.83 ± 0.18
SDINRVVGLPRTRLALRSKR | -0.447 ± 0.54
SDLSKKSLLKVLMAS | -0.375 ± 1.1
SDPKLFCAIKAGNTQLGVES | 0.634 ± 0.54
SDRQHNAYNFLFVL | 4.6 ± 0.051
SDTGGSVYMKTVGRTHLTYD | -0.252 ± 0.25
SEAKGYLIWGFLWLFGYDFE | -0.802 ± 0.63
SECFRLSLRKGCNTNQVRNT | -0.989 ± 0.63
SEENYGRYLAMEVYNYSQAL | inactive
SEFYIRLQYNNVVIVDLFEV | -0.701 ± 0.63
SERTLNLRSKSSPHPCST | 3.86 ± 0.12
SETYTLIRARYIMV | -1.24 ± 0.75

Substance | amyloid nucleation score
SEWSTYLCSSNI | inactive
SEYALYAFE | -0.173 ± 0.25
SFAHEDWHTLFLL | -1.32 ± 0.75
SFAIIS | 0.077 ± 0.65
SFCMPGISLFLVFRQTDGHM | inactive
SFDTCRSLIRLYHVPPRTVL | -0.276 ± 0.61
SFFPS | -0.301 ± 0.45
SFFVIGW | 0.102 ± 0.17
SFINVLDQRVILRPPTRVFV | 0.494 ± 0.65
SFIVRRFSSCLHLFGDSEGY | -0.098 ± 0.41
SFLMCGHWIACALTMMVMFQ | 0.896 ± 0.58
SFLRSTSRDPKGCVKMRYFT | 1.17 ± 0.2
SFNDESGFLLSSGYPISFKR | inactive
SFNRS | 0.87 ± 0.31
SFRLISRVLRCNMIQ | -0.881 ± 0.37
SFRSMIQQSAAGFYSSFIST | -1.89 ± 1.1
SFSRSGFCHMCSLSALTGLR | -0.196 ± 1.1
SFVDMSYRFLVGVRFLVRPS | inactive
SFVTCCVSCGWRGQIHAEKL | 6.78 ± 0.073
SFWLTMMCNVGTMALVLSNL | -0.065 ± 0.31
SGEGRLLVRWALVKVTEEKL | 0.907 ± 0.58
